Target: full-length human VPS29 (human, UniProt Q9UBQ0 1-182)
Assay: ITC; TBC proteins (100∼200 μM) injected into retromer proteins (8–16 μM); 20 °C; 20 mM Tris pH 8, 200 mM NaCl, 5 mM βME; one set of sites model
Conditions: both partners purified

binding result: binds
B1: TBC1d5 Ins1 peptide (peptide)
peptide: GQQDLMINNPLSQDEGSLWNKFFQDKE
notes: TBC1d5 residues 132–158 (Insertion 1 region); The limits are told for the crystallised peptide; source: expressed as MBP fusion, purified (Amylose resin, TEV cleavage, Ni-NTA, Superdex 75); not shown: His6, C-terminal, kept

Source: PMC5105194 (Nature Communications, 2016)
